Assay results taken from patent publication US20050036988A1 (published 2005).

Target: the molecule itself
Test: western immunoblotting of rat liver after chronic CCl4 injury

B1: rat stellate cell activation-associated protein (STAP) (enzyme, UniProt Q921A4 1-190, looked up)
chain: MEKVPGDMEIERRERNEELSEAERKAVQATWARLYANCEDVGVAILVRFFVNFPSAKQYFSQFKHMEDPLEMERSPQLRKHACRVMGALNTVVENLHDPDKVSSVLALVGKAHALKHKVEPMYFKILSGVILDVIAEEFANDFPVETQKAWTKLRGLIYSHVTAAYKEVGWVQQVPNTTTLPATLPSSGP
notes: Detected in rat liver tissue lysates and sections, either endogenous or expressed from rAAV/rSTAP; Immunoblots show monomeric and dimeric forms; also called rSTAP; rat STAP
binding result: binds
